Reference: US20260275312, “CRISPR NUCLEASE POLYPEPTIDES AND GENE EDITING SYSTEMS COMPRISING SUCH” (ARBOR BIOTECHNOLOGIES, INC., published 2026)

T1: Nuclease S (synthetic construct)
T1 chain: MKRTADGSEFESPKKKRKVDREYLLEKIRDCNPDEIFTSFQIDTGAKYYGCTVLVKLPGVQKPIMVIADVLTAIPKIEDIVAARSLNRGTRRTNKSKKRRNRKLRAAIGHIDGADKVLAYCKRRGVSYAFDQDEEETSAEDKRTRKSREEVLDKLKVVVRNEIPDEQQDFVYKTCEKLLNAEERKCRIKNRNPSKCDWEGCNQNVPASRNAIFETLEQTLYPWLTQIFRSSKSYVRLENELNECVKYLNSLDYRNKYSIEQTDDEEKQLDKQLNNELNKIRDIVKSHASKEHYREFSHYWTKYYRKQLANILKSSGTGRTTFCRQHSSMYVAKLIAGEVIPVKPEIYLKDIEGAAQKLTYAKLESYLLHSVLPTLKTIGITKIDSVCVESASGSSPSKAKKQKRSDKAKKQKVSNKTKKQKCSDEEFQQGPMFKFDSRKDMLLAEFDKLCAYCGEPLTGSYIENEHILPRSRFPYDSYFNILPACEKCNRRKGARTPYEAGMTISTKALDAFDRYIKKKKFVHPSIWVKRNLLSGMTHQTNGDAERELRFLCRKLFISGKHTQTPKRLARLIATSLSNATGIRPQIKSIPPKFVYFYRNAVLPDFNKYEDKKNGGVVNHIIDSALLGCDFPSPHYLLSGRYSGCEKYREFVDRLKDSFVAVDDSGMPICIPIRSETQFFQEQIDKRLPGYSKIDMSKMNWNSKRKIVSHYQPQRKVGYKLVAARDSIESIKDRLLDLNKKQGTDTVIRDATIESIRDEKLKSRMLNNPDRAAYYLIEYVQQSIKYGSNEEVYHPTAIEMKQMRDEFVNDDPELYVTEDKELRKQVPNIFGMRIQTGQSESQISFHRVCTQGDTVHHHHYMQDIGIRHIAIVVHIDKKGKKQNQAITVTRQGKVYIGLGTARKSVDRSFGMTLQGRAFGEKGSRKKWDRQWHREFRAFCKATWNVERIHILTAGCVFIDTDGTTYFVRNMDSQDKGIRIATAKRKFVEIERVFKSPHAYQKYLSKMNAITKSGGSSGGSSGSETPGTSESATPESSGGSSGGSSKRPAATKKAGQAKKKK

T2: Nuclease H L54R/L323R/T783R (synthetic construct, L54R,L323R,T783R)
T2 chain: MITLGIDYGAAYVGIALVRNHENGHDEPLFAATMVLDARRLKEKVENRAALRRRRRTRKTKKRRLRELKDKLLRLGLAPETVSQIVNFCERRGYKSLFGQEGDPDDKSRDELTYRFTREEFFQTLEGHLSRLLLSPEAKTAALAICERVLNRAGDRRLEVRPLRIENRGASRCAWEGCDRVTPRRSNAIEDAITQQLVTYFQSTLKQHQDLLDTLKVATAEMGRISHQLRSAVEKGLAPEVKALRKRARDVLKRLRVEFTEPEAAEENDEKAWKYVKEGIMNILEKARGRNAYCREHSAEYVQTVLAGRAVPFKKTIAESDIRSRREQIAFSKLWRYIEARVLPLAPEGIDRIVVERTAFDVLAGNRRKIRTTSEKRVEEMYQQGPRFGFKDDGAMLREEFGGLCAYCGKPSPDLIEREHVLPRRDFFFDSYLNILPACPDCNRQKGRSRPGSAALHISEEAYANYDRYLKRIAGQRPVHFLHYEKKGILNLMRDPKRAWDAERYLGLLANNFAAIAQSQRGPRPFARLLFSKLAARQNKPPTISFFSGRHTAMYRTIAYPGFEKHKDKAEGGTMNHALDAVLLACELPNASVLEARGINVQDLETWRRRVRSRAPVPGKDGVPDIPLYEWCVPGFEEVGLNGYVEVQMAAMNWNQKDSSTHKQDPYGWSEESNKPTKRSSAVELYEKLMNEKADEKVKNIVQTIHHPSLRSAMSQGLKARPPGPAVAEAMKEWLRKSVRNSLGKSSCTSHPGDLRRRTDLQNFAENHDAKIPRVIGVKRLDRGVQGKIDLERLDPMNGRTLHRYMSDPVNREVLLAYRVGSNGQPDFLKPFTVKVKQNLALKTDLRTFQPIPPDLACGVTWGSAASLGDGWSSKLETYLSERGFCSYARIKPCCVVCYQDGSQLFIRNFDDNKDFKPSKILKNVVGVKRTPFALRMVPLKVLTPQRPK


Assays:
Nuclease S = biological target: T1, Nuclease S; experiment: cell_activity; HEK293T; PAM AACC 3'; very low; details: tags: N-term SV40 NLS, XTEN linker + C-term nucleoplasmin NLS
[1] = biological target: T2, Nuclease H L54R/L323R/T783R; experiment: cell_activity; HEK293T; PAM AAC; details: tags: N-term SV40 NLS, XTEN linker + C-term nucleoplasmin NLS
Experimental: HEK293T cells were transfected with plasmids expressing the Nuclease H polypeptides and the gRNAs provided herein following the methods provided in Example 1 above. Gene editing efficiencies were determined by NGS following the methods also provided in Example 1. The NGS results were analyzed also following the methods provided in Example 1 above.
Each Nuclease H variant and RNA guide (see Table 16) was cloned as described in Example 9. HEK293T cells were further transfected, followed by NGS analysis, as described in Example 10. For each target, indel ratios, referring to the percentage of NGS reads comprising indels, were calculated for the reference Nuclease H (SEQ ID NO: 64) and for each Nuclease H variant. The indel ratios shown in Table 18 were calculated as the average of two bioreplicates, each of which contained two technical replicates.

Binder	activity (Nuclease S)	activity [1]
S AAVS1-T7 RNA guide ; AAVS1-T7 target (S) (ssRNA ; dsDNA) RNA: GGCUAUAAUCCAUGCUGACCGUUGUAUUCGGAUGGGAGUAAAAGGUUGAGUACACCUGGAAACAAAACGACAUAAAGGUGUUCUCCCAUCUGUGUACAAAGAGCAGAUAUAUGAGUUGAUAAGUAAUAUGUUGCACGUAUGGACUUUGACAGUCUGUACCUCUGCGUGAAAGACAUAUUGCGUUAUUCAUAUAUCUGUGAGUCUGUUCUAAAUUUAAAGGUUUAGGGAA DNA 1: GGCTATAATCCATGCTGACC DNA 2: GGTCAGCATGGATTATAGCC	0.0048 indel ratio	–
H AAVS1-T5 RNA guide ; AAVS1-T5 target (H) (ssRNA ; dsDNA) RNA: GGCUAUAAUCCAUGCUGACCGUUUCAAUCAACCUGAUCUCUCUGCUUGCGCUGCAGGCUUCAUAAGAUCAGUAGGUUGAAAAGAGCAUCCGUCCGACAUGCACUCCGGGAUGGGGCAGUCCCGGCUCUUGCGGUUCCCGAUGCAGUUAUGUGUCCGCGGAACACGGUGUCGGACACGUCGCAAGACAGGAUGUGAGCCCAUUAUCCACAUUAGGAUCAAUGUACGCAUGAGCAGUCCGCAAUGCCGGGGACGCU DNA 1: GGCTATAATCCATGCTGACC DNA 2: GGTCAGCATGGATTATAGCC	–	0.4 indel ratio
